Data published in patent US20240132621A1.

Biological target: chitinase-3-like protein-1 (YKL-40) on human ovarian cancer cell CA5171 (human) (UniProt P36222)
Experiment: flow cytometry on human ovarian cancer cell CA5171

Chain of UniProt P36222 (P36222 22-383): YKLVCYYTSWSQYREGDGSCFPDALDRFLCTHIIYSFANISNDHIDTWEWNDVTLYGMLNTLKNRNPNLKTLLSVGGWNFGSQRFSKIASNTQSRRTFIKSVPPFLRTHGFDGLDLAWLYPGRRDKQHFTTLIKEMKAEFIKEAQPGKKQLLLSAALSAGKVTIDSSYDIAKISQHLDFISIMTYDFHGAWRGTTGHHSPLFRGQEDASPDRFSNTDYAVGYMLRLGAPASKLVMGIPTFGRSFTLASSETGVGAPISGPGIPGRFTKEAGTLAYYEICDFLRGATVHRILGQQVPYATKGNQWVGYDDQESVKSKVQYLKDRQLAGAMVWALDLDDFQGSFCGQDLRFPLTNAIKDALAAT

- binding ability (percent, flow cytometry): 28.7%
Substance: control group antibody (IgG)
